The record followed here is article PMC4465971, “MIST, a Novel Approach to Reveal Hidden Substrate Specificity in Aminoacyl-tRNA Synthetases”.

The target in data set [1] is T1, yArgRS (yeast cytoplasmic arginyl-tRNA synthetase) (Saccharomyces cerevisiae, UniProt Q05506 1-607).
T1 sequence: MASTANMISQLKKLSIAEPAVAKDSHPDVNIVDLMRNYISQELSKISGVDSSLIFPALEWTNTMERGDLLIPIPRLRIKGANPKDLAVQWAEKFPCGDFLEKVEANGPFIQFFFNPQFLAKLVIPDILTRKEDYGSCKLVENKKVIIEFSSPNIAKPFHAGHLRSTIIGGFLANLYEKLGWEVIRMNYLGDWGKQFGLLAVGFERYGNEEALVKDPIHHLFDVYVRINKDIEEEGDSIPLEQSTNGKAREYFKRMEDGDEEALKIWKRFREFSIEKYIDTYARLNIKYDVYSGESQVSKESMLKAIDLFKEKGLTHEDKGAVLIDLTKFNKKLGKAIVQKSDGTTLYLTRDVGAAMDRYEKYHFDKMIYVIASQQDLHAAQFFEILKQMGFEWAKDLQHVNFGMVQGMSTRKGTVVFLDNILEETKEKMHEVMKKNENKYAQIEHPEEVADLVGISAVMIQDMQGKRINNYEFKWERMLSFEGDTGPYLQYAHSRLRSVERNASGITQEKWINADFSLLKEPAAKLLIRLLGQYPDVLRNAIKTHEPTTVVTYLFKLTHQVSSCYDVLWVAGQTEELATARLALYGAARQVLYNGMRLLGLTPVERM
Description: EMSA + tRNA microarray (MIST); 0.8 uM yArgRS, total tRNA competition, 10 mM Mg2+; 25 mM Tris-HCl pH 7.5, 75 mM KCl, 10 mM MgCl2, 25% glycerol; 15 min at room temperature (Fig 1 legend: on ice); native 6% PAGE at room temperature. As to conditions: protein: recombinant, tags: none (tag-free native recombinant, E. coli TB1, pTrc99B), label: 5'-32P, tRNA cloverleaf. A general note: In EMSA bound probe runs differently from free probe, usually more slowly.

Data set [2] has as its target T1, yArgRS (yeast cytoplasmic arginyl-tRNA …). Description: EMSA; 0.5 uM yArgRS, single tRNA, 10 mM Mg2+; 25 mM Tris-HCl pH 7.5, 75 mM KCl, 10 mM MgCl2, 25% glycerol; 15 min at room temperature (Fig 1 legend: on ice); native 6% PAGE at room temperature. The note with it: protein: recombinant, tags: none (tag-free native recombinant, E. coli TB1, pTrc99B), label: 32P, tRNA cloverleaf.

Data set [3] has the same target. Description: EMSA + tRNA microarray (MIST); total tRNA competition, 10 mM Mg2+; highest among tRNA Arg; 25 mM Tris-HCl pH 7.5, 75 mM KCl, 10 mM MgCl2, 25% glycerol; 15 min at room temperature (Fig 1 legend: on ice); native 6% PAGE at room temperature. As to conditions: protein: recombinant; tags: none (tag-free native recombinant, E. coli TB1, pTrc99B); label: 5'-32P; tRNA cloverleaf.

The target is the same in data set [4]. Kind of data set: EMSA + tRNA microarray (MIST); total tRNA competition, 10 mM Mg2+; 25 mM Tris-HCl pH 7.5, 75 mM KCl, 10 mM MgCl2, 25% glycerol; 15 min at room temperature (Fig 1 legend: on ice); native 6% PAGE at room temperature. As to conditions: protein: recombinant; tags: none (tag-free native recombinant, E. coli TB1, pTrc99B); label: 5'-32P; tRNA cloverleaf.

Data set [5] shares this target. Description: EMSA + tRNA microarray (MIST); total tRNA competition, 10 mM Mg2+; strong affinity; 25 mM Tris-HCl pH 7.5, 75 mM KCl, 10 mM MgCl2, 25% glycerol; 15 min at room temperature (Fig 1 legend: on ice); native 6% PAGE at room temperature. As to conditions: protein: recombinant; tags: none (tag-free native recombinant, E. coli TB1, pTrc99B); label: 5'-32P; tRNA cloverleaf, long variable loop (class 2).

B1: native tRNA Ile (GAT) (structured_RNA)
RNA: GAAACUAUAAUUCAAUUGGUUAGAAUAGUAUUUUGAUAAGGUACAAAUAUAGGUUCAAUCCCUGUUAGUUUCA
modifications: native post-transcriptional modifications (not specified)
Regarding B1, in data set [1], the binding signal was < 0.3 fold enrichment vs input.

B2: tRNA Asp (GUC) transcript (structured_RNA)
RNA: UCCGUGAUAGUUUAAUGGUCAGAAUGGGCGCUUGUCGCGUGCCAGAUCGGGGUUCAAUUCCCCGUCGCGGAG
modifications: none (unmodified transcript)
With B2, the binding signal in data set [2] stood at 35 % complexed.

B3: tRNA Leu (GAG) transcript (structured_RNA)
RNA: GGUACUCUGGCCGAGUGGUCUAAGGCGUCAGGUCGAGGUCCUGAUCUCUUCGGAGGCGCGGGUUCAAACCCCGCGGGUAUCA
modifications: none (unmodified transcript)
As for B3, the binding signal in data set [2] (long variable loop (class 2)) is > 60 % complexed.

B4: native tRNA Leu (GAG) (structured_RNA)
RNA: B3 RNA
modifications: native post-transcriptional modifications (not specified)
On to B4, for which, in data set [1] (long variable loop (class 2)), the binding signal is > 3 fold enrichment vs input.

B5: native tRNA Gly (TCC) (structured_RNA)
RNA: GGGCGGUUAGUGUAGUGGUUAUCAUCCCACCCUUCCAAGGUGGGGACACGGGUUCGAUUCUCGUACCGCUCA
modifications: native post-transcriptional modifications (not specified)
For the molecule B5, the binding signal in data set [1] was < 0.3 fold enrichment vs input.

B6: native tRNA Ser (AGA) (structured_RNA)
RNA: GGCAACUUGGCCGAGUGGUUAAGGCGAAAGAUUAGAAAUCUUUUGGGCUUUGCCCGCGCAGGUUCGAGUCCUGCAGUUGUCG
modifications: native post-transcriptional modifications (not specified)
Take B6: the binding signal in data set [1] (long variable loop (class 2)) was > 3 fold enrichment vs input.

B7: native tRNA Arg (UCU) (structured_RNA)
RNA: GCUCGCGUGGCGUAAUGGCAACGCGUCUGACUUCUAAUCAGAAGAUUAUGGGUUCGACCCCCAUCGUGAGUG
modifications: native post-transcriptional modifications (not specified)
With B7, in data set [3], the binding result was “binds”.

B8: native tRNA Gly (GCC) (structured_RNA)
RNA: GCGCAAGUGGUUUAGUGGUAAAAUCCAACGUUGCCAUCGUUGGGCCCCCGGUUCGAUUCCGGGCUUGCGCA
modifications: native post-transcriptional modifications (not specified)
Regarding B8, the binding signal in data set [4] was 4.5 fold lower apparent affinity than tRNA Leu (GAG).

B9: native tRNA Arg (CCU) (structured_RNA)
RNA: GUUCCGUUGGCGUAAUGGUAACGCGUCUCCCUCCUAAGGAGAAGACUGCGGGUUCGAGUCCCGUACGGAACG
modifications: native post-transcriptional modifications (not specified)
For B9, in data set [1], the binding signal was < 0.3 fold enrichment vs input.

B10: tRNA Pro (AGG) transcript (structured_RNA)
RNA: GGGCGUGUGGUCUAGAGGUAUGAUUCUCGCUUAGGGUGCGGGAGGUCCCGGGUUCGAGUCCCGGCUCGCCCC
modifications: none (unmodified transcript)
B10: the binding signal in data set [2] was 19 % complexed.

B11: native tRNA Pro (AGG) (structured_RNA)
RNA: B10 RNA
modifications: native post-transcriptional modifications (not specified)
As for B11, the binding signal in data set [1] was < 0.3 fold enrichment vs input.

B12: native tRNA Leu (UAA) (structured_RNA)
RNA: GGAGGGUUGGCCGAGUGGUCUAAGGCGGCAGACUUAAGAUCUGUUGGACGGUUGUCCGCGCGAGUUCGAACCUCGCAUCCUUCA
modifications: native post-transcriptional modifications (not specified)
Regarding B12, the binding result in data set [5] was “binds”.
